Measured values reported in patent publication US7972827B2, “Photoswitchable method for the ordered attachment of proteins to surfaces” (Lawrence Livermore National Security, LLC, priority 2003, dated 2011).

Target: T1, MBP-N-intein fusion protein (Synechocystis sp., UniProt P74750)
T1 construct: made in house; host or cells: E. coli BL21(DE3)pLysS+
Test: in solution trans-splicing activity of photocaged C-intein polypeptides with MBP-N-intein fusion protein
Assay type: biochemical, Synechocystis sp. PCC6803
Details: for trans-splicing activity relative to the non-photocaged C-intein polypeptide: % of the trans-splicing activity of the non-photocaged C-intein polypeptide, SDS-PAGE analysis
Procedure: In-vitro protein trans-splicing was characterized as follows. Each purified C-intein polypeptide was combined with MBP-N-intein fusion protein in splicing buffer (0.5 mM EDTA, 1 mM TCEP, 50 mM sodium phosphate, 150-500 mM NaCl at pH 7). The concentration of the two proteins was typically in the range 0.1-200 μM. The mixture was allowed to react at 4° C. for 12-16 h. The reaction was then quenched by dilution into SDS-PAGE loading buffer containing 20% v/v 2-mercaptoethanol before the SDS-PAGE analysis. The spliced product was purified using HPLC and characterized by ES-MS as the trans-spliced product. The expected mass (average isotopic composition)=43988.0 Da; measured mass=43986±10 Da.
The in solution trans-splicing activity of each photocaged C-intein polypeptide was assayed using the MBP-N-intein fusion protein expressed as described above.

Substance	trans-splicing activity relative to the non-photocaged C-intein polypeptide	ability to promote trans-splicing (in words) (with MBP-N-intein fusion protein, data not shown)
C-intein polypeptide with caged Gly6: DnaE C-intein polypeptide SEQ ID NO:6 with PEGylated thiol linker, photocaged (nitroveratryl) at Gly6	about 30%	–
C-intein polypeptide with caged Gly11: DnaE C-intein polypeptide SEQ ID NO:6 with PEGylated thiol linker, photocaged (nitroveratryl) at Gly11	around 60%	–
C-intein polypeptide with caged Gly19: DnaE C-intein polypeptide SEQ ID NO:6 with PEGylated thiol linker, photocaged (nitroveratryl) at Gly19	about 30%	–
C-intein polypeptide with two caged residues, Gly19 and Gly31: DnaE C-intein polypeptide SEQ ID NO:6 with PEGylated thiol linker, photocaged (nitroveratryl) at both Gly19 and Gly31	–	completely prevent trans-splicing activity
